Experiments:
[1] = target: T1, IDEF1 (AK107456) B3-domain fragment, MBP fusion (Oryza sativa, UniProt Q6Z1Z3 SEQ:141-362); experiment: EMSA; specific binding; settings: tags: MBP (pMAL-c2); label: labeled (EMSA probe)
T1 chain: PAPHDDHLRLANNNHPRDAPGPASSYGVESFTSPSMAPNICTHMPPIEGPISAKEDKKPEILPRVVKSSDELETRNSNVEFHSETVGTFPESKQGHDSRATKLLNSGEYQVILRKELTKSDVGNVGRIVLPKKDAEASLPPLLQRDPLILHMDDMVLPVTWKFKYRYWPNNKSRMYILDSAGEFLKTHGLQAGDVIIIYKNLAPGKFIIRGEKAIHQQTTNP
Procedure: (§1) Next, the following operation was carried out for gel shift assay. First, partial ORFs containing a B3 DNA-binding domains of the respective candidate proteins were obtained by use of the following primers: a primer including the sequences shown in, respectively, SEQ ID NOS: 52 (forward) and 53 (reverse), for the 501st-726th amino acids of OsVP1; a primer including the sequences shown in, respectively, SEQ ID NOS: 54 (forward) and 55 (reverse), for the 141st-362nd amino acids of AK107456; a primer including the sequences shown in, respectively, SEQ ID NOS: 56 (forward) and 57 (reverse), for the 151st-433rd amino acids of AK072874; a primer including the sequences shown in, respectively, SEQ ID NOS: 58 (forward) and 59 (reverse), for the 1st-289th amino acids of AK109920; and a primer including the sequences shown in, respectively, SEQ ID NOS: 60 (forward) and 61 (reverse), for the 287th-672nd amino acids of AK101356. Then, each of the partial ORFs was inserted into pMAL-c2 (New England Biolabs) so as to be fused in frame to a maltose-binding protein (MBP) gene. By using a plasmid thus obtained, a fused protein of each of the candidate proteins and the MBP was produced in accordance with manufacturer's instructions. […]

[2] = target: T2, AK072874 B3-domain fragment, MBP fusion (Oryza sativa, UniProt Q7XKC5 Q7XKC5:151-433); experiment: EMSA; specific binding; settings: tags: MBP (pMAL-c2); label: labeled (EMSA probe)
T2 sequence: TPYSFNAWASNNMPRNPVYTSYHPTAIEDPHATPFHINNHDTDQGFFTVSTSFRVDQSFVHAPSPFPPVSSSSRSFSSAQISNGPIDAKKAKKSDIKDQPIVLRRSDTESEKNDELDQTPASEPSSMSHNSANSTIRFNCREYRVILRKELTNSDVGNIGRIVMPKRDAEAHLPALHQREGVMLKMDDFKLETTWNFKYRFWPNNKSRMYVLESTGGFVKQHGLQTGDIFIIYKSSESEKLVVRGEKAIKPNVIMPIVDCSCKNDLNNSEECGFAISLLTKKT
Procedure: as §1

[3] = target: T3, OsVP1 B3-domain fragment, MBP fusion (Oryza sativa, UniProt P37398 P37398:501-726); experiment: EMSA; no specific binding; settings: tags: MBP (pMAL-c2); label: labeled (EMSA probe)
T3 sequence: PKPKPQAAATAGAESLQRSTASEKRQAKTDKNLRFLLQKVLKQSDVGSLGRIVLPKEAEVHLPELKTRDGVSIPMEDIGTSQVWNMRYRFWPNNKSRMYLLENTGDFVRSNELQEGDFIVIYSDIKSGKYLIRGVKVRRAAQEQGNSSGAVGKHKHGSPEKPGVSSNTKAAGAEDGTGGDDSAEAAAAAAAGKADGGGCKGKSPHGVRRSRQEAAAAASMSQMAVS
Procedure: as §1

[4] = target: T1, IDEF1 (AK107456) B3-domain fragment, …; experiment: competition; 30-fold excess mutated IDE1 competitors; CATGC specifically recognized; settings: tags: MBP (pMAL-c2)
Procedure: as §1

[5] = target: T2, AK072874 B3-domain fragment, MBP fusion; experiment: as above; settings: tags: MBP (pMAL-c2)
Procedure: as §1

[6] = target: T4, IDEF2 NAC domain, MBP fusion (Oryza sativa); experiment: EMSA; 500 ng fusion protein; competition with 30- or 50-fold excess mutants shows CA[A/C]G(TTT) recognized; settings: tags: MBP (pMAL-c2); label: labeled
T4 chain: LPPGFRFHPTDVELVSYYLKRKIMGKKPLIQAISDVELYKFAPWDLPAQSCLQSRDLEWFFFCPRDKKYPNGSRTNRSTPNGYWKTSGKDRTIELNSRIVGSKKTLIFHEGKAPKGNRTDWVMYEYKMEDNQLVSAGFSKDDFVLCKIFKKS
Procedure: Then, specific binding of IDEF2 to IDE2 was confirmed by the EMSA method. An IDEF2 NAC domain amplified by a primer including the base sequences shown in, respectively, SEQ ID NOS: 64 and 65, was cloned to a pMAL-c2 vector, and was used to produce an IDEF2-MBP fused protein. Then, a labeled […] including the base sequence (SEQ ID NO: 41) including IDE2 was incubated with 500 ng of the IDEF2-MBP fused protein.
Next, competition experiments were carried out by addition of 30-fold or 50-fold excess unlabeled competitors. FIG. 10 and (a) of FIG. 12 show mutations introduced into polynucleotide fragments, which were used as the competitors. The IDE2 probe was incubated with the 30-fold or 50-fold excess unlabeled competitors and 500 ng of the IDEF2-MBP fused protein. FIG. 10 and (b) of FIG. 12 show the result of the competition experiments. As shown in FIG. 10 and (b) of FIG. 12, IDEF2 predominantly recognized a CA[A/C]G(TTT) sequence (SEQ ID NO: 33 or 34) within IDE2.

B1: IDE2-IDE1x2 (tandemly duplicated IDE1 probe) (dsDNA)
DNA 1: AAGCTTGAATTCGATATCTTGAACGGCAAGTTTCACGCTGTCACTATCAAGCATGCTTCTTGCTTGAACGGCAAGTTTCACGCTGTCACTATCAAGCATGCTTCTTGCACGCGTCTCGAGTCGCGAATCG
DNA 2: CGATTCGCGACTCGAGACGCGTGCAAGAAGCATGCTTGATAGTGACAGCGTGAAACTTGCCGTTCAAGCAAGAAGCATGCTTGATAGTGACAGCGTGAAACTTGCCGTTCAAGATATCGAATTCAAGCTT
B1: binds [1]; binds [2]; no binding [3].

B2: IDE1 (dsDNA)
DNA 1: ATCAAGCATGCTTCTTGC
DNA 2: GCAAGAAGCATGCTTGAT
B2: binds [4]; binds [5].

B3: IDE2 EMSA probe (dsDNA)
DNA 1: GAGAGTGGGTTGAACGGCAAGTTTCACGCTGTCACTATCGTCCTCG
DNA 2: CGAGGACGATAGTGACAGCGTGAAACTTGCCGTTCAACCCACTCTC
B3: binds [6].

Source: US20110138496, “POLYPEPTIDE FOR IMPROVING TOLERANCE TO IRON DEFICIENCY IN PLANTS, AND USE THEREOF” (published 2011)
